Experimental data as given in US20090092617A1 (K BENHAVNS UNIVERSITET, published 2009).
Where no end group is shown, it is not given here.

Legend:
[1] = target: T1, Recombinant protein comprising the whole extracellular part of human ErbB1 (human, UniProt P00533 25-645); experiment: SPR (BIAcore 2000), peptide dendrimer immobilized, receptor ECD injected; mean ± SEM
T1 construct: extracellular domain; also called EGF receptor; EGFR
Protocol: (§1) Binding analyses were performed with the surface plasmon resonance (SPR)-based biosensor instrument BIAcore2000 (BIAcore AB, Uppsala, Sweden), at 25° C. using ready-made HBS-EP buffer (BIAcore AB) as running buffer. Peptides were immobilized on the surface of a CM5 sensor chip (BIAcore AB) using an amine coupling kit (Biosensor AB, Uppsala, Sweden) according to the manufacturer's instructions, at a flow rate of 5 μl/min. Briefly, carboxyl groups on the sensor chip surface were activated by injection of 35 μl activation solution followed by injection of peptide (50 μg/ml peptide in HBS-EP buffer, pH 7.4) until the desired level of immobilized peptide was reached. Unreacted peptide was washed out and unreacted activated groups were blocked by the injection of 35 μl 1 M ethanolamine. The final immobilization response was app. 7000-9000 resonance units (RU). […] ErbB receptor proteins were injected at various concentrations at a flow rate of 20 μl/min, and binding to the peptides immobilized on the chip was measured in real-time. […] Data were analyzed by nonlinear curve fitting using the manufacturer' software. […]
(§2) The binding of three Inherbin peptides to all four members of the ErbB receptor family was determined using surface plasmon resonance (SPR) binding analysis (table 1).

[2] = target: T2, Human ErbB2 extracellular part fused to Fc of human IgG1 (human, UniProt P04626 23-652); experiment: SPR (BIAcore 2000), peptide immobilized on CM5 chip, receptor protein injected
T2 construct: extracellular domain; also called ErbB2-Fc chimeric protein; not shown: Fc region of human IgG1
Protocol: (§3) Binding analyses were performed with the surface plasmon resonance (SPR)-based biosensor instrument BIAcore2000 (BIAcore AB, Uppsala, Sweden), at 25° C. using ready-made HBS-EP buffer (BIAcore AB) as running buffer. Peptides were immobilized on the surface of a CM5 sensor chip (BIAcore AB) using an amine coupling kit (Biosensor AB, Uppsala, Sweden) according to the manufacturer's instructions, at a flow rate of 5 μl/min. Briefly, carboxyl groups on the sensor chip surface were activated by injection of 35 μl activation solution followed by injection of peptide (50 μg/ml peptide in HBS-EP buffer, pH 7.4) until the desired level of immobilized peptide was reached. Unreacted peptide was washed out and unreacted activated groups were blocked by the injection of 35 μl 1 M ethanolamine. The final immobilization response was app. 7000-9000 resonance units (RU). A reference surface was generated simultaneously under the same conditions but without peptide injection and used as a blank chip control. ErbB receptor proteins were injected at various concentrations at a flow rate of 20 μl/min, and binding to the peptides immobilized on the chip was measured in real-time. The curve corresponding to the difference between signals on flow cells with immobilized peptide and the signal on the blank flow cell was used for analysis. Each sensorgram consists of an association phase (the first 320 seconds), reflecting binding of the injected receptor to the peptide, and a dissociation phase (app. 300 seconds), during which running buffer is passed over the chip and the bound receptor is being washed off. Data were analyzed by nonlinear curve fitting using the manufacturer' software. The recombinant protein comprising the whole extracellular part of human ErbB1 (also termed the EGF receptor, EGFR) was purchased from Research Diagnostics (Concord, Mass., USA). Recombinant proteins comprising the Fc region of human IgG₁ and the Fc protein fused to the extracellular parts of human ErbB2, ErbB3 or ErbB4 were purchased from R&D Systems Europe (Abingdon, UK).
as §2

[3] = target: T3, Human ErbB4 extracellular part fused to Fc of human IgG1 (human, UniProt Q15303 26-651); experiment: as above
T3 construct: extracellular domain; also called ErbB4-Fc chimeric protein; not shown: Fc region of human IgG1
T3 sequence (looked up): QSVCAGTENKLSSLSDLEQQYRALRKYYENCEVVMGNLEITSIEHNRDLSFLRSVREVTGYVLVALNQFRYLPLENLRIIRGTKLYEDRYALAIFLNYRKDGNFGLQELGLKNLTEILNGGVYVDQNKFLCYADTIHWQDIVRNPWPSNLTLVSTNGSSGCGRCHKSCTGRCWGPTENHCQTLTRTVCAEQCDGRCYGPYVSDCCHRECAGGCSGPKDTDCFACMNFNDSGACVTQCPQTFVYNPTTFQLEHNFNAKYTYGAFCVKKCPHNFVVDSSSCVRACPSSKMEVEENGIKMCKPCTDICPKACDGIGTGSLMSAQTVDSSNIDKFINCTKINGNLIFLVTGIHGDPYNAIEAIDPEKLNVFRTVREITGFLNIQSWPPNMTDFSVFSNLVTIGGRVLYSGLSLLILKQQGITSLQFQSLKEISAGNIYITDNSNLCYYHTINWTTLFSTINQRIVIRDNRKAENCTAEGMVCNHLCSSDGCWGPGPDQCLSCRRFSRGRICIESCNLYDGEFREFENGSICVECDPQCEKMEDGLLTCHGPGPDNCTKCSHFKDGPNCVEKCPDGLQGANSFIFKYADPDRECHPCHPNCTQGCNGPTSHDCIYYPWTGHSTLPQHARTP
Protocol: as §3, §2

[4] = target: T4, Human ErbB3 extracellular part fused to Fc of human IgG1 (human, UniProt P21860 20-643); experiment: SPR (BIAcore 2000), peptide dendrimer immobilized, receptor ECD-Fc injected; mean ± SEM
T4 construct: extracellular domain; also called ErbB3-Fc chimeric protein; not shown: Fc region of human IgG1
T4 sequence (P21860 20-643): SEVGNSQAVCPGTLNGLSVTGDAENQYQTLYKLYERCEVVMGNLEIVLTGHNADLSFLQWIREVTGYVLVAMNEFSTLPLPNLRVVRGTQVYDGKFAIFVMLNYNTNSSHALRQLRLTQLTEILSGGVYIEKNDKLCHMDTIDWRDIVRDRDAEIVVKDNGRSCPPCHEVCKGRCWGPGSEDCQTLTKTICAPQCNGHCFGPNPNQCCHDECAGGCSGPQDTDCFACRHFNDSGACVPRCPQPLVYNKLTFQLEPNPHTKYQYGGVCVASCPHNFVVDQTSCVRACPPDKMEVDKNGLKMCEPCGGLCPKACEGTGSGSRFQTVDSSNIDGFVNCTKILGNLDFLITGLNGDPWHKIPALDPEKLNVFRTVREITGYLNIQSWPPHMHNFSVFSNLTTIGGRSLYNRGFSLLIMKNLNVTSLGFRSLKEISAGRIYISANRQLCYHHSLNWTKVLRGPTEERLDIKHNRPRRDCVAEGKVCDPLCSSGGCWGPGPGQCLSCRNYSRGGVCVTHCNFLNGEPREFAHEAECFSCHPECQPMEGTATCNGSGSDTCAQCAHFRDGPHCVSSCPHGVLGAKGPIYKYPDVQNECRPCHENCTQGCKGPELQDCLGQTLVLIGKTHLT
Protocol: as §3, §2

[5] = target: T1, Recombinant protein comprising the …; experiment: SPR (BIAcore 2000), peptide dendrimer immobilized, receptor ECD injected; mean ± SEM, SEM 4.9e-9 in r8c2
Protocol: as §1, §2

[6] = target: T4, Human ErbB3 extracellular part fused to …; experiment: SPR (BIAcore 2000), peptide dendrimer immobilized, receptor ECD-Fc injected; mean ± SEM, SEM 8e-9 in r11c2
Protocol: as §1, §2

[7] = target: T2, Human ErbB2 extracellular part fused to …; experiment: SPR (BIAcore 2000), peptide dendrimer immobilized, receptor ECD-Fc injected; mean ± SEM
Protocol: as §3, §2

[8] = target: T3, Human ErbB4 extracellular part fused to …; experiment: as above
Protocol: as §3, §2

B1: Inherbin3d, tetrameric dendrimer of the Inherbin3 peptide (peptide)
peptide: LVYNKLTFQLEPNPHTK
modifications: also: tetrameric dendrimer: four monomers coupled to a lysine backbone
notes: also called 3DL
Kd [1]: 70 nM
binding result [2]: no binding (tested: 32 µM (concentration given for FIG. 1))
binding result [3]: no binding (tested: 32 µM (concentration given for FIG. 1))
Kd [4]: 17.9 nM

B2: Inherbin1 peptide, tetrameric dendrimer (peptide)
peptide: MLYNPTTYQMDVNPEGK
modifications: also: tetrameric dendrimer: four monomers coupled to a lysine backbone
notes: It was immobilized on a CM5 chip by amine coupling; also called 1DL
binding result [2]: no binding
binding result [3]: no binding
Kd [5]: 13.6 nM
Kd [6]: 49 nM

B3: Inherbin4 peptide, tetrameric dendrimer (peptide)
peptide: FVYNPTTFQLEMNFNAK
modifications: also: tetrameric dendrimer: four monomers coupled to a lysine backbone
notes: also called 4DL
Kd [1]: 297 nM
Kd [7]: 43 nM
Kd [4]: 19.9 nM
Kd [8]: 90.4 nM
